Article PMC5620080, “The cryo-EM structure of hibernating 100S ribosome dimer from pathogenic Staphylococcus aureus” (Nature Communications, 2017)

Columns and labels:
[1] = target: the molecule itself; assay: cryo-EM structure; native 100S ribosome dimers purified from S. aureus; 6.8 Å map of the 100S, 6.7 Å focused map of the dimer interface (C2 symmetry), 3.2 Å masked 30S map
[2] = target: the molecule itself; assay: SEC; Superdex-200 Increase 10/300 GL; 20 mM Tris pH 7.9, 20 mM MgCl2, 250 mM NH4Cl, 10 mM KCl; 0.5 ml/min; 50 µg of purified HPFSA protein; apparent molecular weights from a standard curve

B1: S. aureus hibernating promoting factor (HPFSA), full length, in the native 100S ribosome (natural protein, UniProt Q2FIN9 1-190, looked up)
chain: MIRFEIHGDNLTITDAIRNYIEEKIGKLERYFNDVPNAVAHVKVKTYSNSATKIEVTIPLKNVTLRAEERNDDLYAGIDLINNKLERQVRKYKTRINRKSRDRGDQEVFVAELQEMQETQVDNDAYDDNEIEIIRSKEFSLKPMDSEEAVLQMNLLGHDFFVFTDRETDGTSIVYRRKDGKYGLIQTSEQ
notes: hibernating promoting factor (HPF), Staphylococcus aureus JE2 (USA300), full-length hpf under its native promoter; residues 1-190; first 100 residues modelled, C-terminal domain fitted as a homology model; Two copies in the 100S dimer, one for each 70S; also called long HPF; N-HPFSA (N-terminal domain); source: S. aureus hpf-knockout strain (USA300, JE2) with plasmid pLI50hpf; isolated with the …
binding result [1]: binds

B2: recombinant His-tagged full-length HPF (HPFSA) (natural protein, S. aureus, UniProt Q2FIN9 1-190, looked up)
chain: MIRFEIHGDNLTITDAIRNYIEEKIGKLERYFNDVPNAVAHVKVKTYSNSATKIEVTIPLKNVTLRAEERNDDLYAGIDLINNKLERQVRKYKTRINRKSRDRGDQEVFVAELQEMQETQVDNDAYDDNEIEIIRSKEFSLKPMDSEEAVLQMNLLGHDFFVFTDRETDGTSIVYRRKDGKYGLIQTSEQ
notes: hibernating promoting factor (HPF), Staphylococcus aureus, full length; also called full-length HPFSA protein; source: E. coli BL21(DE3), pET28a, purified
binding result [2]: binds
